According to patent publication US20090169546A1 (published 2009):
Blank lines part the entries; values can stand above or below the binder they belong to. No end group written: not given here.

Assays:
[1] = target: T1, recombinant HMG1 produced in E. coli as calmodulin binding protein (CBP) fusion (human); experiment: cell-based or functional assay
T1 chain: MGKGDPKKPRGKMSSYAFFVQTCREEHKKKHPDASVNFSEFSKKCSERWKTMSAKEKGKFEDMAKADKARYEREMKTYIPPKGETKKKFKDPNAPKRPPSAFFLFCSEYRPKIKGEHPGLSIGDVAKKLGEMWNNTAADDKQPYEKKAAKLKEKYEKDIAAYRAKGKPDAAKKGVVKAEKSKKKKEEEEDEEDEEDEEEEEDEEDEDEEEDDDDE

[2] = target: T2, native nuclear HMG1 prepared from 293H cells by freeze thaw (human, UniProt P09429 1-215); experiment: HMG1 capture (sandwich) ELISA, FIG. 4B
T2 sequence (looked up): T1 chain
Procedure: (§1) Sandwich ELISA (soluble HMG1): Immunoplates (EIA/RIA plate, High binding, Costar) were coated with anti human IgG Fc at 10 μg/ml in PBS (pH 7.2) and incubated at 4° C. overnight. The coating reagent was removed and the plates were rinsed briefly with PBS. The plates were then blocked with 4% milk for 1 hour at 37° C. and rinsed with PBS. The anti-HMG1 antibodies were diluted in 4% milk. For serial dilutions, the antibodies were used at a starting concentration of 20 μg/ml. The diluted anti-HMG1 antibodies were then added into plate and incubated for 1 hr at 37° C. The plate was then washed 10 times with PBST (PBS/0.1% tween 20) and incubate with antigen (HMGB1, 2 μg/ml; or 0.7 μg/ml for native HMGB1) in 4% milk and incubated at 37° C. for 1 h. The plate was then wash 10 times and incubated with mouse anti-HMGB1, 1 μg/ml in 4% milk at 37° C. for 1 h. The plate was washed 10 times and incubated with anti-mouse IgG-HRP at 1:1000 at 37° C. for 1 h. The plate was then washed and developed. HRP activity was detected with Sureblue HRP substrate (KPL). Plates were read at 450 nm using a Kinetic Microplate Reader (Molecular Devices).

[3] = target: T1, recombinant HMG1 produced in E. coli as …; experiment: ELISA; HMGB1 preincubated with antibody, then added to immobilised RAGE-Fc
Procedure: HMG1 binding to RAGE-Ig by ELISA: 50 μl/well of RAGE-Fc fusion protein at 5 μg/ml in PBS was added to each well of an ELISA plate and incubated overnight at 4° C. The plate was then blocked with 200 μl of 5% milk at 37° C. for 1 hr and washed 3× with PBS/Tween. 50 μl/well of diluted HMGB1 solution. For dose curves, HMGB1 concentrations started at 4 ug/ml in PBS. For antibody blocking the HMGB1 was preincubated in another plate with human anti-HMG1 antibodies or buffer, then transferred to the RAGE-coated plate. The plates were then incubated at room temperature for 2 hours and washed 3×. To detect any HMG1 bound to the immobilized RAGE-Fc a mixture of biotinylated mouse anti-HMG1 mAbs (10D4, 4H11, 3E10 and 5C12) each at 1 ug/ml, total Ab: 4 ug/ml, were added to each well and the plate was incubated for 1 hour at room temperature. The plate was then washed and Strepavidin-HPR was added to each well and incubated 15 min. The plate was then washed 3× and blotted dry. 100 μl of TMB developing agent was added and the plate read at 650 nm. Values were calculated as percent of inhibition with HMG1 alone equal to 0% inhibition. The data in FIG. 9 and summarized in Table 1 represent the average of two separate experiments.

[4] = target: T1, recombinant HMG1 produced in E. coli as …; experiment: BIAcore 3000; mAb amine-coupled to CM5, HMG1 injected in two-fold dilutions; steady-state model
Procedure: HMG1 Binding Affinity via BIAcore Analysis: All experiments were performed on a BIAcore 3000 instrument (BIAcore, Inc., Piscataway, N.J.). Briefly, each mAb was immobilized to a CM5 sensor chip using a standard amine coupling chemistry. Separately a reference (control) flow cell was also prepared. Two-fold, serial dilutions of HMG1 in instrument buffer were sequentially injected at a slow flow rate over the individual mAb and reference flow-cell surfaces. Following the binding and dissociation of HMG1, the mAbs surfaces were regenerated with a brief pulse of 1M NaCl-50 mM NaOH. At the end of each experiment, the binding curves were evaluated using a steady-state model available through the BIAevaluation software supplied by BIAcore, Inc. (Piscataway, N.J.).

[5] = target: T2, native nuclear HMG1 prepared from 293H …; experiment: sandwich ELISA, relative binding
Procedure: as §1

[6] = target: T3, released HMG1 from the conditioned media of necrotic 293H cells (human, UniProt P09429 1-215); experiment: sandwich ELISA, relative binding
T3 construct: also called necrotic HMG1
T3 sequence (looked up): T1 chain
Procedure: as §1

[7] = target: T4, activated HMG1 prepared from LPS stimulated THP-1 cells (human, UniProt P09429 1-215); experiment: sandwich ELISA, relative binding
T4 construct: also called Native HMGB
T4 sequence (looked up): T1 chain
Procedure: as §1

[8] = target: T5, nuclear HMGB1 in HUVEC cells (UniProt P09429 1-215); experiment: immunofluorescence on HUVEC, antibody 1 ug/ml
T5 construct: HUVEC are human cells; also called nuclear HMGB1 (immunostaining)
T5 sequence (looked up): T1 chain
Procedure: (§2) Immunofluorescence: Intracytoplasmic (ic) HMGB1 was quantitated by direct immunofluorescence. HUVEC were harvested by trypsin-EDTA treatment and seeded on a glass coverslip. Once the cells are settled, they were stimulated with 0.2 μg/ml of LPS (Sigma) for 4 hours. The cells were fixed in 2% paraformaldehyde for 15 min and then permeabilized in 0.2% Triton X-100 for 2 min. Fixed and permeabilized cells were incubated with anti-HMGB1 antibodies at 1 μg/ml for 1 hour at room temperature. Cells were then washed to remove excess or nonspecifically bound primary antibody followed by incubation with anti human IgG conjugated with fluorescence (Pierce). The sections were mounted with fluoromount (Southern Associates, Birmingham, Ala.), and the images were processed with a Nikon microscope (Japan) and a SPOT imaging system (Diagnostic Instrument).
(§3) As noted above, the different antibodies bind differently to HMGB1 isolated or prepared from different sources. To expand this observation the anti-HMBG1 antibodies G4 and S6 were used for immunostaining of untreated or LPS activated THp-1 (not shown) and HUVEC cells (FIG. 4F). […] As nuclear HMHB1 binds to DNA and histones, which might be disrupted after cell freeze and thaw we immunoprecipitate freeze thaw preparation and probed for histones by Western Blot. No DNA or histones could be detected from this preparation (data not shown). […]

[9] = target: T6, HMGB1 B-box peptide 91-108 (human, also: biotinylated, site not given here); experiment: ELISA on biotinylated peptides captured on avidin
T6 peptide: DPNAPKRPPSAFFLFCSE
Procedure: The plate was then blocked with 4% milk powder dissolved in PBS at 37° C. for 1 hour. The blocking solution was removed and replaced with human anti-HMG1 antibodies at various concentrations (see FIGS. 5A-B). […] HRP activity was detected with Sureblue HRP substrate (KPL). Plates were read at 450 nm using a Kinetic Microplate Reader (Molecular Devices). […] After washing and blocking with 1% BSA in PBS, the biotinylated peptides were individually added into the avidin coated wells and incubated for 30 min at room temperature. The serial diluted antibody G4, S16 and S6 at the initial concentration at 10 μg/ml were then transferred into the wells followed by adding mouse anti human IgG-HRP conjugate (Pierce). Detection was accomplished by adding 50 μl of tetramethylbenzidine (TMB) substrate (KPL) and the absorbance was read at 450 nm.

[10] = target: T7, actively secreted HMGB1 of LPS activated HUVEC cells (UniProt P09429 1-215); experiment: immunofluorescence on LPS treated HUVEC, antibody 1 ug/ml
T7 sequence (looked up): T1 chain
Procedure: as §2, §3

IC50, inhibition of rHMG1 stimulated IL-1β release from human PBMCs [1]: 0.22 mg/L | IC50, inhibition of rHMG1 stimulated IL-6 release from human PBMCs [1]: 0.000163 µM | IC50, inhibition of rHMG1 stimulated TNF-α release from human PBMCs [1]: 0.0642 mg/L | binding result [2]: binds | percent inhibition of HMG1 binding to RAGE [3]: ≥ 35% | Kd [4]: 0.036 µM
B1: anti-HMG1 antibody S2 (antibody, V domains shown)
VH: EVQLLESGGGLVQPGGSLRLSCAASGFTFSGYMMVWVRQAPGKGLEWVSRISPSGGQTGYADSVKGRFTISRDNSKNTLYLQMNSLRAEDTAVYYCAREEGGSYGAFDIWGQGTMVTVSS
VL: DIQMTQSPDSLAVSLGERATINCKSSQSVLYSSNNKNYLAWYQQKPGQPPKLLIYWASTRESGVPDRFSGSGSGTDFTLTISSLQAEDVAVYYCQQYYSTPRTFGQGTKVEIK
notes: also called ATCC PTA-6142

IC50, inhibition of rHMG1 stimulated IL-1β release from human PBMCs [1]: 5.01 mg/L | IC50, inhibition of rHMG1 stimulated IL-6 release from human PBMCs [1]: 0.0009 µM | IC50, inhibition of rHMG1 stimulated IL-12 release from human PBMCs [1]: 0.715 mg/L | IC50, inhibition of rHMG1 stimulated TNF-α release from human PBMCs [1]: 5.51 mg/L | binding result [5]: binds | binding result [7]: binds | binding result [8]: binds | binding result [9]: binds | binding result [10]: binds | Kd [4]: 0.03 µM
B2: anti-HMG1 antibody G4 (antibody, V domains shown)
VH: EVQLLESGGGLVQPGGSLRLSCAASGFTFSWYDMTWVRQAPGKGLEWVSSISPSGGYTKYADSVKGRFTISRDNSKNTLYLQMNSLRAEDTAVYYCTTEFYDYLDVWGKGTTVTVSS
VL: DIQMTQSPGTLSLSPGEGATLSCRASQSVSSTYLAWYQQKPGQAPRLLIYEASKRATGTPARFSGSGSGTDFTLSISSLEPEDFAVYYCQHRHNWPPQWTFGQGTKVEVK
notes: also called ATCC PTA-6258
binding result [6]: binds

IC50, inhibition of rHMG1 stimulated IL-1β release from human PBMCs [1]: 2.59 mg/L | IC50, inhibition of rHMG1 stimulated IL-6 release from human PBMCs [1]: 0.000324 µM | IC50, inhibition of rHMG1 stimulated IL-12 release from human PBMCs [1]: 1.13 mg/L | IC50, inhibition of rHMG1 stimulated TNF-α release from human PBMCs [1]: 0.875 mg/L | binding result [2]: binds | percent inhibition of HMG1 binding to RAGE [3]: ≥ 35% | Kd [4]: 0.054 µM
B3: anti-HMG1 antibody S10 (antibody, V domains shown)
VH: EVQLLESGGGLVQPGGSLRLSCAASGFTFSWYDMWWVRQAPGKGLEWVSWIVPSGGITAYADSVKGRFTISRDNSKNTLYLQMNSLRAEDTATYYCARGNYGPSPFDYWGQGTLVTVSS
VL: DIQMTQSPGTLSLSPGERATLSCRATQSVRKNFLAWYQQKPGQAPRLLIYDASSRATGIPDRFSGSGSGTDFTLTISRLEPEDFAVYYCQQYGNSPIIFGQGTRLEIK
